According to patent US20050148500A1, “Dopaminergic stimulatory factor” (priority 2001, published 2005):
“Also recorded” adds a separate entry of the source.

Tested on: MN9D cells
Assay: Dopamine content of MN9D cells in monolayer culture after incubation with protein (HPLC)
Format: cell-based, mouse
Description: […] The MN9D cells on each plate were then collected in 10 ml of CMF, transferred to 15 ml centrifuge tubes and centrifuged at 1000×g for 5 min. The supernatant was removed and 600 μl of 0.5 N perchloric acid was added to the cell pellet which was then sonicated on ice for 10-15 s. The cell extract was centrifuged at 4000×g for 30 min and the supernatant stored at −80° C. for subsequent high pressure liquid chromatography (HPLC) analysis of MN9D cell dopamine content. The pellet was stored at −20° C. for subsequent protein analysis.
A second experiment was then conducted to determine whether this effect was due to a change in the doubling time (24 h) of the MN9D cells with increased cell production or was the result of an increase in cellular dopamine. […] Cells were removed from the plates and cell numbers determined by counting in a hematocytometer. Dopamine content was determined by HPLC analysis. The MN9D cells can be differentiated by exposure to either sodium butyrate or dibutryl cyclic adenosine monophosphate for 5 days (Choi et al., 1991) resulting in a reduction in the rate of cell division and the production of extensive cellular processes.
Experiment involved 24 hour incubation with X61 protein(s). X61 protein(s) was incubated with 100 microliter of concentrated monoclonal antibody against 14-3-3 (anti-14-3-3) obtained from Santa Cruz Biotechnology for 15 minutes at room temperature prior to addition to MN9D cells grown on 6-well plates. Data given as ng dopamine per well, n=3. The reason for the lower amounts of dopamine seen in this experiment as compared to that in Tables 2 and 3 is related to differences in time of exposure and plate size. X61 protein(s) were also preincubated with an antibody against neuronal nuclear protein as a control. This antibody had no effect on X61 protein(s) activity.
After this period, the MN9D cells on each plate are collected in 10 ml of CMF, transferred to 15 ml centrifuge tubes and centrifuged at 1000×g for 5 min. The supernatant is removed and 600 μl of 0.5N perchloric acid is added to the cell pellet which is then sonicated on ice for 10-15 seconds. The material obtained is centrifuged at 4000×g for 30 minutes and the supernatant stored at −80° C. MN9D cell DA content is determined by reverse phase high pressure liquid chromatography with electrochemical detection (HPLC-ED) as previously described (Heller et al., 1993). The pellet is stored at −20° C. for subsequent protein analysis.

B1: transforming growth factor β2 (protein, UniProt P61812 303-414, looked up)
Transforming growth factor …: ALDAAYCFRNVQDNCCLRPLYIDFKRDLGWKWIHEPKGYNANFCAGACPYLWSSDTQHSRVLSLYNTINPEASASPCCVSQDLEPLTILYYIGKTPKIEQLSNMIVKSCKCS
effect on MN9D DA levels: without effect

B2: ciliary neurotrophic factor (protein, UniProt P26441 1-200, looked up)
Ciliary neurotrophic factor: MAFTEHSPLTPHRRDLCSRSIWLARKIRSDLTALTESYVKHQGLNKNINLDSADGMPVASTDQWSELTEAERLQENLQAYRTFHVLLARLLEDQQVHFTPTEGDFHQAIHTLLLQVAAFAYQIEELMILLEYKIPRNEADGMPINVGDGGLFEKKLWGLKVLQELSQWTVRSIHDLRFISSHQTGIPARGSHYIANNKKM
effect on MN9D dopamine levels (100 ng/ml, 24 hour treatment): no significant effect | MN9D DA levels (100 ng/ml, 24 hour treatment, controls 157.8±3.3): 156.5±10.9 ng/plate

B3: glial derived neurotrophic factor (protein, UniProt P39905 78-211, looked up)
Glial cell line-derived …: SPDKQMAVLPRRERNRQAAAANPENSRGKGRRGQRGKNRGCVLTAIHLNVTDLGLGYETKEELIFRYCSGSCDAAETTYDKILKNLSRNRRLVSDKVGQACCRPIAFDDDLSFLDDNLVYHILRKHSAKRCGCI
effect on MN9D dopamine levels versus controls (1 ng/ml for 5 days): significantly lower; also recorded: significant decrease | MN9D DA levels (1 ng/ml for 5 days, control 467±18.4): 356.0±14.4 ng/plate
